For the assay, the system named is wild-type C57BL/6J mice. Description: Locomotor behavior test (open field) before and after L-DOPA. The assay is classed as in vivo, mouse. From the text: RAID neuromodulation provides an approach for precise modulation of brain activity through regionally activated interstitial drug delivery. It should be noted, site-specific, noninvasive methods hold promise for controlled behavioral modulation. As such, to evaluate long-term efficacy of RAID neuromodulation, RAID's ability to sustain behavioral control over time is described herein. In some embodiments, to measure effects of RAID neuromodulation on behavior, targeting dorsal striatum with two FUS sites are be analyzed. In some instances, effects of RAID neuromodulation by targeting dorsal striatum with two FUS sites can be used to increase an amount of on-target delivery of AADC in the CPu region that contains dopamine-responsive cells. […] With this in mind, in certain embodiments, a pair of AADC-IKVAV (SEQ ID NO: 23) and L-DOPA may be used to evaluate whether RAID can induce similar behavioral changes after the prodrug administration. In some embodiments, AADC-IKVAV (SEQ ID NO: 23) is delivered via FUS-BBBO to two sites in the left striatum region of wild type mice. FIG. 11a illustrates embodiments of RAID control of behavior through targeted neuromodulation including an experimental scheme for RAID-induced control of motor behavior by targeted activation of dopamine neurons, in accordance with embodiments described herein. As illustrated, FUS in two sites of the left striatum are used to deliver AADC-IKVAV (SEQ ID NO: 23) (250 mg/kg, i.v. injection) or PBS buffer control. After 2 days, open field test (OFT) was performed twice before and after a single injection of the prodrug L-DOPA (2 mg/kg, i.p.), allowing 200 minutes between each test. The locomotor activity was recorded for 15 min after a habituation period of 5 min in each test. After the testing, mice were perfused 2 h after L-DOPA administration for histologic examination of AADC-IKVAV (SEQ ID NO: 23) retention and neuron activation (c-Fos+) to confirm localize neuromodulation. As schematically depicted in FIG. 11a, the AADC protein fused with a short peptide IKVAV (SEQ ID NO: 23) (e.g., AADC-IKVAV (SEQ ID NO: 23)) to two sites in the left striatum of wild-type mice using FUS-BBBO. After 46 hours, the mice underwent an open field (OF) test to assess baseline locomotor activity over a 20-minute period. The mice were then returned to their home cages and, 100 minutes later, received an intraperitoneal injection of L-DOPA (2 mg/kg) before undergoing another OF test.
Locomotor behavior test—Two groups of mice underwent FUS-BBBO targeting two sites at left striatum immediately after intravenous injection of recombinant protein AADC-IKVAV (SEQ ID NO: 23) (n=14 mice for FUS+AADC-IKVAV group, 20 mg/mL, 250 mg/kg) or equivalent volume of PBS buffer (n=11 mice for FUS alone group). Another group without FUS-BBBO procedure served as wild type control (n=12 mice for WT group). After 46 h, the first session of behavioral test was performed in a custom-made non-transparent open field box (30.5 cm×30.5 cm) as a baseline. Each mouse was individually placed into the apparatus center with a light intensity and background noise at ˜320 lux and 46 dB (400 Hz peak), respectively. After a habituation period of 5 min, the locomotor activity of a freely-moving mouse was recorded for 15 min by a video tracking system (Stoelting Co.) consisting of an overhead camera connected to a computer with Any-Maze software. Behavioral measures include total distance traveled, average and maximum speed, freezing time and episodes, mobile/immobile time and episodes, clockwise and counterclockwise rotations and head turn angles. The mouse was returned to the home cage immediately after testing. After 90 min, the mice were intraperitoneally injected with carbidopa (25 mg/kg) and 10 min later L-DOPA (2 mg/kg) as described above. A second session of open field test 100 min after L-DOPA injection.

Where [1] appears, read: FUS+AADC-IKVAV alone, 46 h, vs WT and FUS alone.

The values below come from patent US20250195629A1, “SITE-SPECIFIC BRAIN THERAPEUTICS” (William Marsh Rice University, priority 2023, published 2025).

Turning to `N[C@@H](Cc1ccc(O)c(O)c1)C(=O)O` [L-DOPA, reference compound], the “decrease of clockwise (contralateral) rotation after L-DOPA” value is, setting by setting: (FUS alone group, L-DOPA 2 mg/kg i.p.) 44±13%; (untreated wild-type group, L-DOPA 2 mg/kg i.p.) 52±8%. For the same molecule, the “change in episodes of mobility after L-DOPA” value (control groups, FUS alone or wild type, L-DOPA 2 mg/kg i.p.) is reported as “no significant change”. Moreover, the “reduction of counter-clockwise (ipsilateral) rotations after L-DOPA” value (control mice with FUS alone or no treatment, L-DOPA 2 mg/kg i.p.) is listed as “not in the control mice”.

B1: AADC-IKVAV: aromatic-L-amino-acid decarboxylase (AADC) protein fused with short peptide IKVAV (SEQ ID NO: 23); CDS SEQ ID NO: 21 (protein)
chain: MRGSHHHHHHGMASMTGGQQMGRDLYDDDDKDPMNASEFRRRGKEMVDYMANYMEGIEGRQVYPDVEPGYLRPLIPAAAPQEPDTFEDIINDVEKIIMPGVTHWHSPYFFAYFPTASSYPAMLADMLCGAIGCIGFSWAASPACTELETVMMDWLGKMLELPKAFLNEKAGEGGGVIQGSASEATLVALLAARTKVIHRLQAASPELTQAAIMEKLVAYSSDQAHSSVERAGLIGGVKLKAIPSDGNFAMRASALQEALERDKAAGLIPFFMVATLGTTTCCSFDNLLEVGPICNKEDIWLHVDAAYAGSAFICPEFRHLLNGVEFADSFNFNPHKWLLVNFDCSAMWVKKRTDLTGAFRLDPTYLKHSHQDSGLITDYRHWQIPLGRRFRSLKMWFVFRMYGVKGLQAYIRKHVQLSHEFESLVRQDPRFEICVEVILGLVCFRLKGSNKVNEALLQRINSAKKIHLVPCHLRDKFVLRFAICSRTVESAHVQRAWEHIKELAADVLRAEREGGSGSSGGSGGSGGSGIKVAV
modifications: misc_feature 1..1602 Synthetic: AADC-IKVAV
B1: under setting [1], the “counter-clockwise rotations before L-DOPA administration” value is reported as “no effect” and the “number of mobile episodes before L-DOPA administration” value is reported as “no effect”. Further, the “clockwise (contralateral) rotation after L-DOPA” value (RAID treatment: FUS + AADC-IKVAV, L-DOPA 2 mg/kg i.p.) is recorded as “prevented that decrease”. The “decrease in mobile episodes after L-DOPA” value (RAID: FUS two sites left striatum + AADC-IKVAV 250 mg/kg i.v., 2 days, L-DOPA 2 mg/kg i.p.) is on record as 38±8%. For the same molecule, the “reduction of counter-clockwise (ipsilateral) rotations after L-DOPA” value (full RAID treatment: FUS + AADC-IKVAV 250 mg/kg i.v., L-DOPA 2 mg/kg i.p.) is 63±10%.
